In article PMC9025068, “DNA-Binding Properties of a Novel Crenarchaeal Chromatin-Organizing Protein in Sulfolobus acidocaldarius” (Biomolecules, 2022):

Tests used:
[1] = system: Sul12a (Sulfolobus acidocaldarius); test: EMSA; details: KDapp, salmon sperm DNA 25 ug/mL, 20 mM Tris-HCl pH 8.0, 1 mM MgCl2, 0.1 mM DTT, 12.5% glycerol, 50 mM NaCl, 0.4 mM EDTA, 37 C 20 min, 0.1 nM 32P-DNA with 25 ug/mL salmon sperm DNA …
[2] = target: the molecule itself; test: SDS-PAGE with western blot; 100 and 250 ug purified Sul12a separated by SDS-PAGE (4-12%), blotted on PVDF, probed with HRP-conjugated anti-polyHistidine antibodies

Work on argO promoter region (F3) yielded a Kd ([1]; F1 + F3 mixture) of 3700 nM.

carAB promoter region (F2) was tested, and the Kd ([1]; F1 + F2 mixture) was 1200 nM.

B1: Sul12a (natural protein, Sulfolobus acidocaldarius, UniProt Q4JA12 1-107, looked up)
chain: MELTPRLQDIISILKEKGGSVNIRDLALQLKISPKTAKGYARELYRLGYIEMDENENMILKRENPENITDLKKTVETHTAEIEALKKEVEFLKEELSRFRGTKKVKV
notes: Sul12a of Sulfolobus acidocaldarius, encoded by the 324-bp gene Saci_1012; 107 amino acids, native MW 12.4 kDa (recombinant His-tagged monomer 14.3 kDa); the Saci_1012 coding region was amplified from genomic DNA and cloned in pET-45b(+); The preparation also held lower-MW species without tag (contaminants or degradation products); also called Saci_1012; not shown: His tag, N-terminal, kept
In the case of B1, the “stoichiometry N” value [2] is reported as 2.
